Here are results for two substances from publication PMC10766600.

In experiment [1] the target is bacteriophage T5 capsid-like particles (T5 CLPs) (bacteriophage T5).
The target is the same in experiment [2]. Nature of the experiment: cryo-EM structure; pNO-decorated CLPs, 200 kV Glacios, icosahedral (I4) reconstruction from 10,449 particles, 5.8 Å.

Sequence of pNO: N-terminal capsid-binding domain pN of pb10 fused at its C-terminal end with ovalbumin (Q6QGD6 whole entry, the tested form may be a part): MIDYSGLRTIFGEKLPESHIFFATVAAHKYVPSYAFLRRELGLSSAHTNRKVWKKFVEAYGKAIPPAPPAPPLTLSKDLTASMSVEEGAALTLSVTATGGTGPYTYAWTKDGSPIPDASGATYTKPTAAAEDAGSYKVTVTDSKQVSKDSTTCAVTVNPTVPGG
Sequence of pO: full-length pb10 fused at its C-terminal end with ovalbumin (Q6QGD6 whole entry, the tested form may be a part): as above

In experiment [1], “pO: full-length pb10 fused at its C-terminal end with ovalbumin (from UniProt Q6QGD6 1-164)” showed an anti-Ova IgG (ELISA) in sera of C57BL/6 mice after a single subcutaneous injection of CLP-bound pO against pO alone, days 14 to 192 post-injection of 1000 fold.
As to “pNO: N-terminal capsid-binding domain pN of pb10 fused at its C-terminal end with ovalbumin (from UniProt Q6QGD6 1-73)”, in experiment [1], the anti-Ova IgG (ELISA) in sera of C57BL/6 mice after a single subcutaneous injection of CLP-bound pNO against pNO alone, days 14 to 192 post-injection turned out to be 1000 fold. In experiment [2], the stoichiometry N (copies per capsid) stood at 120.
